From patent US20250090677A1 (MULTITUDE THERAPEUTICS, published 2025)

T1: recombinant protein CDH6 (UniProt P55285 54-615)
T1 construct: also called CDH6 recombinant protein; CDH6 antigen
T1 sequence (looked up): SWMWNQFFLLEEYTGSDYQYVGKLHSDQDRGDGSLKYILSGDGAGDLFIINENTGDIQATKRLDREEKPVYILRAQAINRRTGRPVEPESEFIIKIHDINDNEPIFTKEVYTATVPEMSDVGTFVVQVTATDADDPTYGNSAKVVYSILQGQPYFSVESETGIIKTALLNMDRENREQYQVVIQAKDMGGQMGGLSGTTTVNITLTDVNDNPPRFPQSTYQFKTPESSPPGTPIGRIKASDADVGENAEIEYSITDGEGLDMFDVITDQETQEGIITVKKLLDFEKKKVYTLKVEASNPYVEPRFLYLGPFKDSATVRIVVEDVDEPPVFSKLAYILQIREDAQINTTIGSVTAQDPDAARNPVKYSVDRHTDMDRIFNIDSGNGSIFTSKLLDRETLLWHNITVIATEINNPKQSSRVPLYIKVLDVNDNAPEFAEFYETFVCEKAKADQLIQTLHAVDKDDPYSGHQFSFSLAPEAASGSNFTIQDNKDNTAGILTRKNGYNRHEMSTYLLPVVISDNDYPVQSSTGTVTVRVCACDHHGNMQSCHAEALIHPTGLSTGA

T2: CDH6 on the cell surface of OVCAR-3 cells (human ovarian cancer cells) (human, UniProt P55285 54-790)
T2 construct: whole, on cells; also called CDH6-positive human ovarian cancer cell line OVCAR-3
T2 sequence (looked up): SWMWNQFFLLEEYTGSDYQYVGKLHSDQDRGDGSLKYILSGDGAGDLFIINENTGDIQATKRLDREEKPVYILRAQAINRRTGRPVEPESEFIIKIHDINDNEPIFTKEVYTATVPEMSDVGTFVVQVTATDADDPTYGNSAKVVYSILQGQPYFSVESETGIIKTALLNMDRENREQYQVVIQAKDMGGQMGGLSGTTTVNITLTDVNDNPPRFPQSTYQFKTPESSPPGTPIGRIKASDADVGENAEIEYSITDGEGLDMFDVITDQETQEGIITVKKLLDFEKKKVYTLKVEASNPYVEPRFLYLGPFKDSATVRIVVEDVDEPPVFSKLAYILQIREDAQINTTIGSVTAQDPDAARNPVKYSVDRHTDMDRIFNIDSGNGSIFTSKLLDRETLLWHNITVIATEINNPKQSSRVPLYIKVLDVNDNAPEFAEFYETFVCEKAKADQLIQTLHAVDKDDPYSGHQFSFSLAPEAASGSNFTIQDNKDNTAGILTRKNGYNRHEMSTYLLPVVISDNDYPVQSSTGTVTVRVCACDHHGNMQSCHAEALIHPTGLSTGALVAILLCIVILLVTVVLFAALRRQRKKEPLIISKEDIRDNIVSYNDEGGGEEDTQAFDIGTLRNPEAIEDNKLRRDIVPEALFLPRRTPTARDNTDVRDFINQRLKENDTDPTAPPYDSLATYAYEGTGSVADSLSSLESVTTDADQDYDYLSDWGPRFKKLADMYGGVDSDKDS


How the values were obtained:
recombinant protein CDH6 [1] = target: T1, recombinant protein CDH6; assay: ELISA, CDH6 coated; antibody 50 ng/mL
Procedure: (§1) The recombinant protein CDH6 was coated on ELISA plates at 1 μg/mL overnight at 4° C.; after being washed with PBST, the plate was added with 10% fetal bovine serum, and the mixture was blocked at 37° C. for 1 h; the plate was added with 13 monoclonal antibodies of CDH6 with different dilutions (0.1 ng/mL to 100 ng/mL), and the mixture was reacted at 37° C. for 1 h; after being washed with PBST, the plate was added with horseradish peroxidase-labeled goat anti-human IgG secondary antibody (Goat anti Mouse (HRP), Thermo Fisher Scientific), and the mixture was reacted at 37° C. for 30 min; after the plate was repeatedly washed with PBST 5 times, the remaining droplets on the absorbent paper were patted as much as possible; each well of the plate was added with 100 μL of TMB (eBioscience) and placed in the dark at room temperature (20±5° C.) for 1.5 min; each well of the plate was added with 100 μL of 2 N H₂SO₄ stop buffer for stopping substrate reaction, OD values at 450 nm were read using a microplate reader, and the binding ability of the antibody to the target antigen CDH6 was analyzed.

recombinant protein CDH6 [2] = target: T1, recombinant protein CDH6; assay: ELISA, CDH6 coated; antibody 6.25 ng/mL
Procedure: as §1

recombinant protein CDH6 [3] = target: T1, recombinant protein CDH6; assay: ELISA, CDH6 coated; antibody 0.20 ng/mL
Procedure: as §1

recombinant protein CDH6 [4] = target: T1, recombinant protein CDH6; assay: ELISA, CDH6 coated; antibody 25 ng/mL
Procedure: as §1

recombinant protein CDH6 [5] = target: T1, recombinant protein CDH6; assay: ELISA, CDH6 coated; antibody 0.78 ng/mL
Procedure: as §1

recombinant protein CDH6 [6] = target: T1, recombinant protein CDH6; assay: ELISA, CDH6 coated; antibody 1.56 ng/mL
Procedure: as §1

recombinant protein CDH6 [7] = target: T1, recombinant protein CDH6; assay: ELISA, CDH6 coated at 1 ug/mL
Procedure: as §1

recombinant protein CDH6 [8] = target: T1, recombinant protein CDH6; assay: ELISA, CDH6 coated; antibody 100 ng/mL
Procedure: as §1

recombinant protein CDH6 [9] = target: T1, recombinant protein CDH6; assay: ELISA, CDH6 coated; antibody 12.5 ng/mL
Procedure: as §1

recombinant protein CDH6 [10] = target: T1, recombinant protein CDH6; assay: ELISA, CDH6 coated; antibody 0.39 ng/mL
Procedure: as §1

recombinant protein CDH6 [11] = target: T1, recombinant protein CDH6; assay: ELISA, CDH6 coated; antibody 0.10 ng/mL
Procedure: as §1

recombinant protein CDH6 [12] = target: T1, recombinant protein CDH6; assay: ELISA, CDH6 coated; antibody 3.13 ng/mL
Procedure: as §1

[13] = target: T2, CDH6 on the cell surface of OVCAR-3 …; assay: flow cytometry (FACS) on OVCAR-3 cells, antibody titration, labelled secondary antibody, MFI

OD450 (recombinant protein CDH6 [1])	OD450 (recombinant protein CDH6 [2])	OD450 (recombinant protein CDH6 [3])	OD450 (recombinant protein CDH6 [4])	OD450 (recombinant protein CDH6 [5])	OD450 (recombinant protein CDH6 [6])	sensitivity (recombinant protein CDH6 [7])	OD450 (recombinant protein CDH6 [8])	OD450 (recombinant protein CDH6 [9])	OD450 (recombinant protein CDH6 [10])	OD450 (recombinant protein CDH6 [11])	OD450 (recombinant protein CDH6 [12])	EC50 (read off the curve) [13]	Binder
3.89 OD450	2.82 OD450	0.181 OD450	3.69 OD450	0.647 OD450	1.11 OD450	≤ 1 ng/mL	3.9 OD450	3.62 OD450	0.255 OD450	0.106 OD450	1.87 OD450	–	CL069439 antibody (antibody, V domains shown, Mouse monoclonal antibody from hybridoma, purified from ascites with Protein A/G; also called #16; No. 16) VH: EVQLQQSGTELVRTGASVKISCKASGYSFTGYYIHWIKQSHGESLEWIGYISCFNGDTSYNQNFKDRATFNVDTSSSTAYMQFISLTSEDSAVYYCVRGRYGNFNYFDYWGQGTTLTVSS VL: DIVLTQSPASLAVSLGQRATISCRASESVEFYGTSLMQWFQQKPGHPPQLLIYATSNVDSGVPARFSASGSGTDFSLNIHPVEEADIAMYFCQQSRRIPWTFGGGTKLEIK
–	–	–	–	–	–	–	–	–	–	–	–	~4 nM	CL069463-H1L1 (antibody, human IgG1, kappa, V domains shown, Humanized IgG1/kappa) VH: EVQLVESGGGLVQPSGSLKLSCAASGFTFNTYALTWVRQASGKGLEWVGRIKSKNKDYETYYADSVKDRFTISRDDSISTLYLQMNSLKTEDTALYYCVRQNWNYFDYWGQGTMLTVSS VL: DIQMTQSPSSLSASVGQRVTITCRASENIYYSLAWYQQKPGKPPRLLIYNANSLKDGVPSRFSGSGSGTQYTMTITSMQPEDFATYYCQQAYDVPPTFGGGTKLEIKR
2.32 OD450	0.975 OD450	0.086 OD450	1.8 OD450	0.211 OD450	0.374 OD450	≤ 3.12 ng/mL	2.62 OD450	1.7 OD450	0.139 OD450	0.073 OD450	0.596 OD450	–	CL069463 antibody (antibody, V domains shown, Mouse monoclonal antibody from hybridoma, purified from ascites with Protein A/G; also called #13; No. 13) VH: EVQLVESGGGLVQPKGSLKLSCAASGFTFNTYALTWVRQAPGKGLEWVGRIKSKNKDYETYYADSVKDRFTISRNDSQSLLYLQMNNLKTEDTAIYYCVRQNWNYFDYWGQGTTLTVSS VL: DIQMTQSPASLAASVGETVTITCRASENIYYSLAWYQQRQGKSPQLLIYNANSLKDGVPSRFSGSGSGTQYSMKINSMQPEDTATYFCQQAYDVPPTFGGGTKLEIK
2.11 OD450	0.577 OD450	0.05 OD450	1.69 OD450	0.094 OD450	0.17 OD450	≤ 6.3 ng/mL	2.38 OD450	1.08 OD450	0.063 OD450	0.048 OD450	0.3 OD450	–	CL069066 antibody (antibody, V domains shown, Mouse monoclonal antibody from hybridoma, purified from ascites with Protein A/G; also called #4; No. 4) VH: EVKLLESGGGLVQPGGSLKLSCAASGFDFSRYWMTWVRQAPGKGLEWIGEINPDSSTINYTPSLKDKFIISRDNAKNTLYLQMNKVTSEDTALYYCTRRPHYYGYFDSWGQGTTLTVSS VL: DIVLTQSPASLAVSLGQRATISCRASESVEYYGTTLMQWYQQKPGQPPQLLIYAGSNVESGVPARFSGSGSGTEFSLNIHPVEEDDIGMYFCQQSRKVPWTFGGGTKLEIK
